From patent US12435158

Key:
Test in all cases: SPR Biacore 8k, antibody captured
[1] = target: lambda Bence Jones protein Lam893c
[2] = target: lambda free light chain Sigma
[3] = target: lambda Bence Jones protein Lam134c
[4] = target: lambda Bence Jones protein Lam885
[5] = target: lambda Bence Jones protein Lam788a
[6] = target: lambda free light chain MyBio

B1: 10B3-VL1 (antibody, human IgG1, kappa, V domains shown)
VH: EVQLVESGGGLVKPGGSLRLSCAASGFTFSSYSMNWVRQAPGKGLEWVSFISSNRNYIYYADSVKGRFTISRDNAKNSLYLQMNSLRAEDTAVYYCASLANWGTYFDYWGQGTLVTVSS
VL: DIQMTQSPSSLSASVGDRVTITCRASQGISSWLAWYQQKPEKAPKSLIYAASSLQSGVPSRFSGSGSGTDFTLTISSLQPEDFATYYCRQYNSYPLTFGGGTKVEIRR
Binder B1 has a Kd [1] of 0.0401 nM, a Kd [2] of 0.522 nM and a Kd [3] of 0.0453 nM. It also gave a Kd [4] of 0.0707 nM, a Kd [5] of 0.11 nM and a Kd [6] of 0.0437 nM.
